The nanobody polyreactivity screen of Harvey et al. (2022)

Experiment: yeast display, Sf9 membrane polyspecificity reagent, FACS + sequencing; frameworks hold sequencing errors
Procedure, shortened: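 Nanobodies from a synthetic yeast display library (Saccharomyces cerevisiae BJ5465), induced 36–48 hours with galactose, were stained 1 hour at 4 °C with 10% biotinylated, detergent-solubilized Sf9 membrane reagent, enriched on streptavidin microbeads, then FACS-sorted. Anti-HA (expression) and streptavidin (reagent binding) fluorescence set low and high (top ~1%) gates. Polyreactivity labels come from the gate of origin. Genes were colony-PCR amplified, MiSeq 2 × 250 sequenced and filtered by CDR length.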

Sequence	polyreactivity (PSR sort gate)
QVQLVESGGGLVQAGGSLRLSCAASGRIFVVNAMGWYRQAPGKERELVATITRSGGITYYADSVKGRFTISRDNAKNTVYLQMNSLKPEDTAVYYCNADVLFYTYYTRGRFDFDYWGQGTQVTVAS	low polyreactivity
QVQLVESGGGLVQAGGSLRLSCAASGRILGGNTMGWYRQAPGKERELVAGISYSGGRTYYADSVKGRFTISRDNAKHTVYLQMNSLKPEDTAVYYCAAEYDWYSYQLDYWGQGTQVTVSS	high polyreactivity
QVQLVESGGGLVQAGGSLRLSCAASGGTFTAYAMGWYRQAPGKERELVAAISASGDSTYYADSVKGRFTISRDNAKNTVYLQMNSLKPEDTAVYYCNADWYRTGRRGSDYWGQGTQVTVSS	low polyreactivity
QVQLVESGGGLVQAGGSLRLSCAASGSTFPKYAMGWYRQAPGKERELVASISVTTGSTYYADSVKGRFTISRDNAKITVYLQMNSLKPEDTAVYYCAKYRPGIPYYQYGSWGQGTQVTVSS	high polyreactivity
QVQLVESGGGLVQAGGSLRISCAASGLIFYSYAMGWYRQAPGKERELVAAISSGTRTYYADSVKGRFTISRDNAKNTVYLQMNSLKPEDTAVYYCAAVDAHKKRYPPSGRLYGYWGQGTQVTVSS	high polyreactivity
QVQLVESGGGLVQAGGSLRLSCAASGRTFGYNAMGWYRQAPGKETELVAAIRYSGGSTYYADSVKGRFTISRDNSKNTVYLQMNSLKPEDTAVYYCAKETRRYYRGYYYWGQGTQVTVSS	high polyreactivity
QVQLVESGGGLVQERGSLRLSCADSGFIFWYYAMGWDRQAPGKERELVAAISWSGDSTYYADSVKGRFTISRDNANNTVYLQMKSLKPEYTAVYYCAVYEELDVFYNGYDYWGQGTQVTVSS	high polyreactivity
QVQLVESGGGLVQAGGSLLLSCAASGRIFRYYAMGWYRQATGKERELVAGISWRGSSTYYADSVKGRFTISRDNATNTVYLQMNSLKPEDTAVYYCNRDQSYIPFTGGRFYYWGQGTQVTVSS	high polyreactivity
QVQLVESGGGLVQAGGSLRLSCAASGSTFAYYAMGWYRQAPGKESELVAAISSGGSTYYADSVKGRFTISRDNAKNTVYLEMFCLKGDDTAVYYCNKLWVGKFKRYEFGYWGQGTQVTVSS	low polyreactivity
QVQLVESGGGLVQAGGSLRLSCAASGLIFGFYTMGWYRQAPGKERELVAVISSSGGSTYYADSVKGRFTISRDNAKNTVYLQMNSLKPEDTAVYYCAARAYPVRYRRRDYWGQGTQVTVSS	high polyreactivity
QVQLVDSGGGLVQAGASLPLSCAASGATFYIYARGWNIQAPGKERELVAANTWSGGRTFYADSVKGRFTMSRDNAKNTDYLQMNSLKPEDTAVYYCANRVRTGSVGNFNYWGQGTQVNVSS	high polyreactivity
QVQLVESGGGLVQAGGSLRLSCAASGSIFWYNTMGWYRQAPGKERELVAAISSSGGTTYYADSVKGRFTISRDNAKNTVYLQMNSLKPEDTAVYYCAATVGDAYYEYDYWGQGTQVTVSS	low polyreactivity
QVQLVESGGGLVQAGGSLRLSCAASGRTFSYYAMGWYRQAPGKERELVARITYRGGRTYYADSVKGRFTISRDNAKNTVYLQMNSLKPEDTAVYYCATTSWRYGYDYWGQGSQVTVSS	high polyreactivity
QVQLVESGGGLVQAGGSLRLSCAASGSIFGFYAMGWYRQAPGKERELVASITISGGSTYYADSVKGRFTISRDNAKNTVYLQLNSLKPEDTAVYYCAARRFWDYNYWGQGTQVTVSS	low polyreactivity
QVQLVESGGGLVQAGGSLRLSCAASGSTFTYYAMGWYRQAPGKERELVAAIDFSGTSTYYADSVKGRFTISRDNAKNTVYLQMNSLQPEDTAVYYCAASQSWYWGGAQDNGEFGYWGQGTQVTVSS	low polyreactivity
QVQLVESGGGLVQAGGSLRLSCAASGFTFWWYAMGWYRQAPGKERELVASIDTRGGTYYADSVKGRFTISRDNAKNTVYLQMNSLKPEDSAVYYCNADGAYGNYRGGYWGQGTEVTVSS	high polyreactivity
QVQLVESGGGLVQAGGSLRLSCAASGGSFGMNAMGWYRKAPGKERELVASINANGGSTYYADSVKGRFTISRDNAKNTVYLQMNSLKPEDTAVYYCAVVVTRYNHNEYNSWGQGTQVTVSS	low polyreactivity
QVQLVESGGGLVQAGGSLRLSCAASGSIFWPYAKGWYRQAPGKERELVAAISSSGTSTYYADSVKGRFTISRDNAKNTVYLQMNSLKPEDTAVYYCAKELFTYPYEYWGQGTQVTVSS	low polyreactivity
QVQLVESGGGLVQAGGSLRLSCAASGRSFYFNAMGWYRQAPGKERELVATISSSSTTYADSVKRRFTISRDNAKNTVYLQMTSLKPEDTAVYYCAARLGTYGEWGRTSYLRWYDYWGQGTQVTVSS	low polyreactivity
QVQLVESGGGLVQAGGSLRLRCAASGRTIASYTMGWYRQAPGKEREWVAAISKSGGSTYYADSVKGRFTNSRDNAKNTVYLQMNSLKPEDTAVYYCAKRRSGNVRKYDYWGQGTQVTVSS	high polyreactivity
QVQLVESVGGLVQAGGSLRLSCAASGRTFWYYSMGWDREAPGKERELVAAITSGGSTNYADSVKGRFTISRDNAKNTVYLQIYSLKPEDTAVYYCDTDNPVFEYYYWGQGTQVTVSS	low polyreactivity
